Data reported in patent US20220380445A1 (Ablynx, published 2022).
Positions count from the first letter of the chain named. Names may count otherwise. Each block holds one binder with its values, some of them ahead of it.

Experiments:
human serum albumin [1] = target: T1, human serum albumin (human, UniProt P02768 25-609); assay: ProteOn kinetic analysis
T1 construct: Amine-coupled to the chip (EDC/NHS); also called HSA

mouse serum albumin = mouse serum albumin (mouse, UniProt P07724 25-608); assay: ProteOn kinetic analysis
rat serum albumin = rat serum albumin (rat, UniProt P02770 25-608); assay: ProteOn kinetic analysis
cyno serum albumin = cyno serum albumin (cyno, UniProt A2V9Z4 25-608); assay: ProteOn kinetic analysis
guinea pig serum albumin = guinea pig serum albumin (guinea pig); assay: ProteOn kinetic analysis
human serum albumin [2] = target: T1, human serum albumin; assay: ProteOn SPR; Nanobody on immobilized human serum albumin; Langmuir simultaneous ka/kd fit
Description: (§1) PBS/Tween (phosphate buffered saline, pH7.4, 0.005% Tween20) was used as running buffer and the experiments were performed at 25° C. […] After immobilization, surfaces were deactivated with ethanolamine HCl (flow rate 30 μl/min). Nanobodies were injected for 2 minutes at 45 μl/min over the HSA surface to render a Nanobody capture level of approximately 200 RU. […] After each cycle (i.e. before a new Nanobody capture and blood sample injection step) the HSA surfaces were regenerated with a 2 minute injection of HCl (100 mM) at 45 μl/min. Sensorgram processing and data analysis was performed with ProteOn Manager 3.1.0 (Bio-Rad Laboratories, Inc.).
(§2) Also, for the serum albumin binders tested, a kinetic analysis was performed of the binding interaction with the immobilized serum albumin (Langmuir, simultaneous ka/kd model).

human serum albumin [3] = target: T1, human serum albumin; assay: as above; remark: listed apart in the source
Description: as §1, §2

human serum albumin [4] = target: T1, human serum albumin; assay: as above; remark: listed apart in the source
Description: as §1, §2

human serum albumin [5] = target: T1, human serum albumin; assay: as above; remark: listed apart in the source
Description: as §1, §2

human serum albumin [6] = target: T1, human serum albumin; assay: as above; remark: listed apart in the source
Description: as §1, §2

human serum albumin [7] = target: T1, human serum albumin; assay: as above; remark: listed apart in the source
Description: as §1, §2

cyno serum albumin, sequence (A2V9Z4 25-608 limits assumed): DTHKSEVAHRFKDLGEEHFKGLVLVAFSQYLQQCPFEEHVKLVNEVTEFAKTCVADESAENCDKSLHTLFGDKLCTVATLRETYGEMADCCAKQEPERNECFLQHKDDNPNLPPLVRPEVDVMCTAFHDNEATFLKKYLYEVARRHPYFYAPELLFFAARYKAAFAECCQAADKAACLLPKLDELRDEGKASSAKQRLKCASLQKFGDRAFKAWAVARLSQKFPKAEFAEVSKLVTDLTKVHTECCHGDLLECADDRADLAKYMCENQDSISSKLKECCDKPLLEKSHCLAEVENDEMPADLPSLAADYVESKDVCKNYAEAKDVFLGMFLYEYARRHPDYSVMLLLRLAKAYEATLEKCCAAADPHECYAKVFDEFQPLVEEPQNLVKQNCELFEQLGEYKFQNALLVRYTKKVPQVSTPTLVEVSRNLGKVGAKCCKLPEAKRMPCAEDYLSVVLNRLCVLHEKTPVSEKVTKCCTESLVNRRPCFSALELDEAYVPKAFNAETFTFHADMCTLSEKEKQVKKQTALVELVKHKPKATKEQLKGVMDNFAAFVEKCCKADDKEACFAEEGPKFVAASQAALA
T1 sequence (P02768 25-609 limits assumed): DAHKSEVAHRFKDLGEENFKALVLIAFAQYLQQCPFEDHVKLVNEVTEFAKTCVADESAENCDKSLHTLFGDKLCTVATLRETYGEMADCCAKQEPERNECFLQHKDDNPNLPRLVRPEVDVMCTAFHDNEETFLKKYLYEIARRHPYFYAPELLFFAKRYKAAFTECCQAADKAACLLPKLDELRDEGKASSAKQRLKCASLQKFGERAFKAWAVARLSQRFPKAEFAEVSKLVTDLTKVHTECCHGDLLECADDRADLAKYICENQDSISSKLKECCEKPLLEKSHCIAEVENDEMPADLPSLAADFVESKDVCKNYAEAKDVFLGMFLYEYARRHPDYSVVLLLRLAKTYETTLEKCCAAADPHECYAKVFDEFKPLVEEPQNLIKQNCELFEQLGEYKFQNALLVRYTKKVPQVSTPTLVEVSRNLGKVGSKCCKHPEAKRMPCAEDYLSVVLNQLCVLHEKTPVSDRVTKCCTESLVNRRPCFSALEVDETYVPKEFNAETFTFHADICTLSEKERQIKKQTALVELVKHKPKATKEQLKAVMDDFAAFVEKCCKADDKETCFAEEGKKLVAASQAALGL
rat serum albumin, sequence (P02770 25-608 limits assumed): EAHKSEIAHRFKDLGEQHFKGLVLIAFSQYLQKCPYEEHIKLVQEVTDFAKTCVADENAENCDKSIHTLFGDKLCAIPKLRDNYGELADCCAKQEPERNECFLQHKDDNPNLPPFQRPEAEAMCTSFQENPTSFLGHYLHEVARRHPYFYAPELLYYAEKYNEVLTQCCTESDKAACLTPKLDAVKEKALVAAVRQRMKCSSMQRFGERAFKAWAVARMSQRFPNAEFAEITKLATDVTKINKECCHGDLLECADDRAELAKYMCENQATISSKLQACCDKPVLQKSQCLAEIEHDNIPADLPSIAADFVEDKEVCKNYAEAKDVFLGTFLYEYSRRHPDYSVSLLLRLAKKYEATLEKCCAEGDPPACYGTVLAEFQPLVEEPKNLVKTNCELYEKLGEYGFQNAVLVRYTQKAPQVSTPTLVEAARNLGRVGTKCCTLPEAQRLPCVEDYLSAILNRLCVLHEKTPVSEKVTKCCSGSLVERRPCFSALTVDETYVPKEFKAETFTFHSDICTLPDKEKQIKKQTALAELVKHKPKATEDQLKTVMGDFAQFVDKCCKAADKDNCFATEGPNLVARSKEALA

Kd (human serum albumin [1]): 0.83 nM | koff (human serum albumin [1]): 0.00084 s⁻¹ | kon (human serum albumin [1]): 1e+06 M⁻¹ s⁻¹ | Kd (mouse serum albumin): 6.8 nM | koff (mouse serum albumin): 0.0073 s⁻¹ | kon (mouse serum albumin): 1.1e+06 M⁻¹ s⁻¹ | Kd (rat serum albumin): 180 nM | koff (rat serum albumin): 0.13 s⁻¹ | kon (rat serum albumin): 710000 M⁻¹ s⁻¹ | Kd (cyno serum albumin): 0.89 nM | koff (cyno serum albumin): 0.00081 s⁻¹ | kon (cyno serum albumin): 910000 M⁻¹ s⁻¹ | Kd (guinea pig serum albumin): 5.1 nM | koff (guinea pig serum albumin): 0.0063 s⁻¹ | kon (guinea pig serum albumin): 1.2e+06 M⁻¹ s⁻¹
B1: SEQ ID NO 10 (VHH)
VHH: EVQLVESGGGVVQPGGSLRLSCAASGFTFRSFGMSWVRQAPGKGPEWVSSISGSGSDTLYADSVKGRFTISRDNSKNTLYLQMNSLRPEDTALYYCTIGGSLSRSSQGTLVTVSS
notes: also called R at position 30

Kd (human serum albumin [2]): 7.6 nM | koff (human serum albumin [2]): 0.0021 s⁻¹ | kon (human serum albumin [2]): 280000 M⁻¹ s⁻¹
B4: Reference A+L11V+V89T+T110K+C-terminal alanine, N-terminal HIS6 tag (VHH)
VHH: HHHHHHEVQLVESGGGVVQPGGSLRLSCAASGFTFRSFGMSWVRQAPGKGPEWVSSISGSGSDTLYADSVKGRFTISRDNSKNTLYLQMNSLRPEDTATYYCTIGGSLSRSSQGTLVKVSSA

Kd (human serum albumin [1]): 2.1 nM | koff (human serum albumin [1]): 0.0014 s⁻¹ | kon (human serum albumin [1]): 690000 M⁻¹ s⁻¹ | Kd (mouse serum albumin): 27 nM | koff (mouse serum albumin): 0.02 s⁻¹ | kon (mouse serum albumin): 750000 M⁻¹ s⁻¹ | Kd (rat serum albumin): 540 nM | koff (rat serum albumin): 0.23 s⁻¹ | kon (rat serum albumin): 420000 M⁻¹ s⁻¹ | Kd (cyno serum albumin): 2.3 nM | koff (cyno serum albumin): 0.0015 s⁻¹ | kon (cyno serum albumin): 640000 M⁻¹ s⁻¹ | Kd (guinea pig serum albumin): 13 nM | koff (guinea pig serum albumin): 0.01 s⁻¹ | kon (guinea pig serum albumin): 790000 M⁻¹ s⁻¹
B5: SEQ ID NO 145 (VHH)
VHH: B1 VHH with E1D, R30T, L93A, S106G
notes: also called T at position 30

Kd (human serum albumin [1]): 2.1 nM | koff (human serum albumin [1]): 0.0015 s⁻¹ | kon (human serum albumin [1]): 710000 M⁻¹ s⁻¹ | Kd (mouse serum albumin): 27 nM | koff (mouse serum albumin): 0.021 s⁻¹ | kon (mouse serum albumin): 770000 M⁻¹ s⁻¹ | Kd (rat serum albumin): 490 nM | koff (rat serum albumin): 0.21 s⁻¹ | kon (rat serum albumin): 430000 M⁻¹ s⁻¹ | Kd (cyno serum albumin): 2.4 nM | koff (cyno serum albumin): 0.0015 s⁻¹ | kon (cyno serum albumin): 640000 M⁻¹ s⁻¹ | Kd (guinea pig serum albumin): 13 nM | koff (guinea pig serum albumin): 0.0098 s⁻¹ | kon (guinea pig serum albumin): 790000 M⁻¹ s⁻¹
B7: SEQ ID NO 129 (VHH)
VHH: B1 VHH with E1D, R30T, L93T, S106G
notes: also called T at position 30

Kd (human serum albumin [5]): 7.2 nM | koff (human serum albumin [5]): 0.0015 s⁻¹ | kon (human serum albumin [5]): 200000 M⁻¹ s⁻¹
B8: Reference A+L11V+V89S+T110K+C-terminal alanine, N-terminal HIS6 tag (VHH)
VHH: B4 VHH with T99S

Kd (human serum albumin [7]): 11 nM | koff (human serum albumin [7]): 0.0017 s⁻¹ | kon (human serum albumin [7]): 160000 M⁻¹ s⁻¹
B13: Reference A+L11V+V89S+C-terminal alanine, N-terminal HIS6 tag (VHH)
VHH: B1 VHH with L93S

Kd (human serum albumin [5]): 7.3 nM | koff (human serum albumin [5]): 0.0016 s⁻¹ | kon (human serum albumin [5]): 220000 M⁻¹ s⁻¹
B16: Reference A+L11V+V89N+T110K+C-terminal alanine, N-terminal HIS6 tag (VHH)
VHH: B4 VHH with T99N

Kd (human serum albumin [1]): 2 nM | koff (human serum albumin [1]): 0.0014 s⁻¹ | kon (human serum albumin [1]): 730000 M⁻¹ s⁻¹ | Kd (mouse serum albumin): 21 nM | koff (mouse serum albumin): 0.017 s⁻¹ | kon (mouse serum albumin): 820000 M⁻¹ s⁻¹ | Kd (rat serum albumin): 490 nM | koff (rat serum albumin): 0.22 s⁻¹ | kon (rat serum albumin): 450000 M⁻¹ s⁻¹ | Kd (cyno serum albumin): 2.1 nM | koff (cyno serum albumin): 0.0014 s⁻¹ | kon (cyno serum albumin): 690000 M⁻¹ s⁻¹ | Kd (guinea pig serum albumin): 8.6 nM | koff (guinea pig serum albumin): 0.0075 s⁻¹ | kon (guinea pig serum albumin): 870000 M⁻¹ s⁻¹
B17: SEQ ID NO 127 (VHH)
VHH: B1 VHH with E1D, R30T, S106G
notes: also called T at position 30

Kd (human serum albumin [2]): 12 nM | koff (human serum albumin [2]): 0.0033 s⁻¹ | kon (human serum albumin [2]): 280000 M⁻¹ s⁻¹
B20: Reference A+L11V+V89T+S104T+C-terminal alanine, N-terminal HIS6 tag (VHH)
VHH: B1 VHH with L93T, S106T

Continued, binder first:

B2: Reference A+L11V+V89T+C-terminal alanine, N-terminal HIS6 tag (VHH)
VHH: B1 VHH with L93T
Kd (human serum albumin [2]): 7.3 nM | koff (human serum albumin [2]): 0.0023 s⁻¹ | kon (human serum albumin [2]): 310000 M⁻¹ s⁻¹

B3: Reference A+L11V+V89L+R102D+C-terminal alanine, N-terminal HIS6 tag (VHH)
VHH: B1 VHH with R104D
Kd (human serum albumin [3]): 82 nM | koff (human serum albumin [3]): 0.0051 s⁻¹ | kon (human serum albumin [3]): 62000 M⁻¹ s⁻¹

B6: Reference A+L11V+V89A+T110K+C-terminal alanine, N-terminal HIS6 tag (VHH)
VHH: B4 VHH with T99A
Kd (human serum albumin [4]): 6.5 nM | koff (human serum albumin [4]): 0.0018 s⁻¹ | kon (human serum albumin [4]): 270000 M⁻¹ s⁻¹

B9: Reference A+L11V+V89L+S101H+C-terminal alanine, N-terminal HIS6 tag (VHH)
VHH: B1 VHH with S103H
Kd (human serum albumin [3]): 24 nM | koff (human serum albumin [3]): 0.0026 s⁻¹ | kon (human serum albumin [3]): 110000 M⁻¹ s⁻¹

B10: Reference A+L11V+V89L+S101E+C-terminal alanine, N-terminal HIS6 tag (VHH)
VHH: B1 VHH with S103E
Kd (human serum albumin [6]): 30 nM | koff (human serum albumin [6]): 0.0044 s⁻¹ | kon (human serum albumin [6]): 150000 M⁻¹ s⁻¹

B11: Reference A+L11V+V89L+S104A+C-terminal alanine, N-terminal HIS6 tag (VHH)
VHH: B1 VHH with S106A
Kd (human serum albumin [6]): 30 nM | koff (human serum albumin [6]): 0.0022 s⁻¹ | kon (human serum albumin [6]): 72000 M⁻¹ s⁻¹

B12: Reference A+L11V+V89N+C-terminal alanine, N-terminal HIS6 tag (VHH)
VHH: B1 VHH with L93N
Kd (human serum albumin [5]): 3.1 nM | koff (human serum albumin [5]): 0.0036 s⁻¹ | kon (human serum albumin [5]): 1.2e+06 M⁻¹ s⁻¹

B14: Reference A+L11V+V89L+S104G+C-terminal alanine, N-terminal HIS6 tag (VHH)
VHH: B1 VHH with S106G
Kd (human serum albumin [4]): 8.3 nM | koff (human serum albumin [4]): 0.0022 s⁻¹ | kon (human serum albumin [4]): 260000 M⁻¹ s⁻¹

B15: Reference A+L11V+V89L+S101G+C-terminal alanine, N-terminal HIS6 tag (VHH)
VHH: B1 VHH with S103G
Kd (human serum albumin [6]): 16 nM | koff (human serum albumin [6]): 0.0017 s⁻¹ | kon (human serum albumin [6]): 110000 M⁻¹ s⁻¹

B18: Reference A+L11V+R30T+V89L+C-terminal alanine, N-terminal HIS6 tag (VHH)
VHH: B1 VHH with R30T
Kd (human serum albumin [7]): 22 nM | koff (human serum albumin [7]): 0.0026 s⁻¹ | kon (human serum albumin [7]): 120000 M⁻¹ s⁻¹

B19: Reference A+L11V+V89A+C-terminal alanine, N-terminal HIS6 tag (VHH)
VHH: B1 VHH with L93A
Kd (human serum albumin [4]): 7.3 nM | koff (human serum albumin [4]): 0.0019 s⁻¹ | kon (human serum albumin [4]): 260000 M⁻¹ s⁻¹

B21: Reference A+L11V+S31D+V89L+C-terminal alanine, N-terminal HIS6 tag (VHH)
VHH: B1 VHH with S31D
Kd (human serum albumin [7]): 20 nM | koff (human serum albumin [7]): 0.0032 s⁻¹ | kon (human serum albumin [7]): 160000 M⁻¹ s⁻¹
